Test results taken from the nanobody polyreactivity screen of Harvey et al. (2022).

Test: yeast display, Sf9 membrane polyspecificity reagent, FACS + sequencing; frameworks hold sequencing errors
Summary of the method: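 Using colony PCR, genes from sorted yeast display clones were amplified, then sequenced on MiSeq at 2 × 250 and filtered by CDR length. The clones had been stained with 10% biotinylated, detergent-solubilized Sf9 membrane reagent for 1 hour at 4 °C and sorted by FACS into low and high (top ~1%) gates on anti-HA and streptavidin fluorescence. Polyreactivity labels come from the gate of origin.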
With “QVQLVESGGGLVQAGGSLRLSCAASGSTFSQNAMGWYRQAPGKERELVAAITSGGITYYADSVKGRFTISRDNAKNTVYLQMNSLKPEDTAVYYCAAVTPSGAHRSAYHPISDYWGQGTQVTVSS” the “polyreactivity (PSR sort gate)” value was “low polyreactivity”.
In the case of “QVQLVESGGGLVQAGGSLRLSCAASGSTFSRNAMGWSRQAPGKERELVAAITRSGGSTYYADSVKGRFSISRDNAKNTVYLQMNSLKPEDTAVYYCAVLSVRRSYNYWGQGTQVTVSS”, the “polyreactivity (PSR sort gate)” value is reported as “high polyreactivity”.
In the case of “QVQLVESGGGLVQAGGSLRLSCAASGSTFSRYAMGWYRPAPGKERELVAAISRSGGTTYYADSVKGRFTISRDNAKNTVYLQMNSLKPEDTAVYYCNARGRYEYGYWGQGTQVTVSS”, the “polyreactivity (PSR sort gate)” value is reported as “high polyreactivity”.
With “QVQLVESGGGLVQAGGSLRLSCAASGSTFSRYAMGWYRQAPGKEMELVAAISWSGGSTYYADSVKGRFTISRDNAKNTVYLQMNSLKPEDTAVYYCAAYTYSFRANHDYWGQGTQVTVTS” the “polyreactivity (PSR sort gate)” value was “high polyreactivity”.
For “QVQLVESGGGLVQAGGSLRLSCAASGSTFSRYAMGWYRQAPGKERELVAAIRRSAGSTYYADSVKGRFTISRDNAKNTVYLQMNSLKPEDTAVYYCAAAGRYDYWGQGTQVTVSS”, the “polyreactivity (PSR sort gate)” value was “high polyreactivity”.
For “QVQLVESGGGLVQAGGSLRLSCAASGSTFSRYAMGWYRQAPGKERELVAAISRSGGSTYYADSVKGRFTISRDNAKNTVYLQMNSLKPEDTAVYYCAKVTTYVSAWQGNGYWGQGTQVTVSS”, the “polyreactivity (PSR sort gate)” value was “high polyreactivity”.
In the case of “QVQLVESGGGLVQAGGSLRLSCAASGSTFSRYAMGWYRQAPGKERELVAAISSDGTTYYADSVKGRFTISRDNAKNTVYLQMNSLKPEDTAVYYCAKRGYYRSRRYDYWGQGTQVTVSS”, the “polyreactivity (PSR sort gate)” value is reported as “high polyreactivity”.
For “QVQLVESGGGLVQAGGSLRLSCAASGSTFSRYAMGWYRQAPGKVRELVAAISWGGNTYYADSVKGRFTISRDNAKNTVYLQMNSLKPEDTAVYYCNRYSKLYNTMDYWGQGTQVTVSS”, the “polyreactivity (PSR sort gate)” value was “high polyreactivity”.
With “QVQLVESGGGLVQAGGSLRLSCAASGSTFSRYTMGWYRQAPGKERELVAGISGIGGSTDYADSVKGRFTISRDNAKNTVYLQMNSLKPEDTAVYYCNAEYTASYSRGFWRYYYPFEYWGQGTQVTVSS” the “polyreactivity (PSR sort gate)” value was “high polyreactivity”.
For “QVQLVESGGGLVQAGGSLRLSCAASGSTFSSYAMGWYRQAPGKERELVAATYYADSVKGRFTISRDNAKNTVYLQMNSLKPEDTAVYYCNADNAYQGGKEYDYWGQGTQVTVSS”, the “polyreactivity (PSR sort gate)” value was “low polyreactivity”.
For “QVQLVESGGGLVQAGGSLRLSCAASGSTFSSYVMGWYRQAPGKERELVAGITRGGRTYYADSVKGRFTISRDNAKNTVYLQMNSLKPEDTAVYYCAKDQGGVHELDYWGQGTQVTVSS”, the “polyreactivity (PSR sort gate)” value was “low polyreactivity”.
For “QVQLVESGGGLVQAGGSLRLSCAASGSTFSTNAMGWYRQAPGKERELVAAISRSGGRTYYADSVKGRFTISRDNAKNTVYLQMNSLKPEDTAVYYCNAVRRFASPSPHYYWGQGTQVTVSS”, the “polyreactivity (PSR sort gate)” value was “high polyreactivity”.
In the case of “QVQLVESGGGLVQAGGSLRLSCAASGSTFSTNAMGWYRQAPGKERELVAAISRSGGSTYYADSVKGRFTISRDNAKNTFYLQMNSLKPEDTAVYYCARYSYRGTNVRYDYCGQGTQVTVSS”, the “polyreactivity (PSR sort gate)” value is reported as “high polyreactivity”.
In the case of “QVQLVESGGGLVQAGGSLRLSCAASGSTFSTYAMGWYRQAPGKERELVAAITAGGGSTYYADSVKGRFTISRDNAKNTVYLQMNSLKPEDTAVYYCAARSYYRFGGGYWGQGTQVTVSS”, the “polyreactivity (PSR sort gate)” value is reported as “high polyreactivity”.
With “QVQLVESGGGLVQAGGSLRLSCAASGSTFSTYDMGWYRQAPGKEREFVAAISDSGGSTYYADSVKGRFTISRDNAKNTVYLQMNSLKPEDTAVYYCNATVVFVQYVDYDYWGQGTQVTVSS” the “polyreactivity (PSR sort gate)” value was “low polyreactivity”.
With “QVQLVESGGGLVQAGGSLRLSCAASGSTFSVNAMGWYIQAPGKEREFVAAIRWPGGSTYYADSVKGRFTISRDNAKNTVYLQLNSLKPEDTAVYYCAARIKYRYDWGQGTQVTVSS” the “polyreactivity (PSR sort gate)” value was “low polyreactivity”.
For “QVQLVESGGGLVQAGGSLRLSCAASGSTFSVYAMGWYRQAPGKERELVAAITWRGGTTYYADSVKGRFTISRDYAKNTVYLQMNSLKPEDTAVYYCNADWWRTLESDYWGQGTQVTVSS”, the “polyreactivity (PSR sort gate)” value was “low polyreactivity”.
With “QVQLVESGGGLVQAGGSLRLSCAASGSTFSVYAMGWYRQAPGKERELVASISSSVGRTFYADSVKGRFTISRDNAKNTVYLQMNSLKPEDTAVYYCAARSYQVKEYDHWGQGTQVTVSS” the “polyreactivity (PSR sort gate)” value was “high polyreactivity”.
In the case of “QVQLVESGGGLVQAGGSLRLSCAASGSTFSVYGMGWYRQAPGKERELVAAISGSGSRTYYADSVKGRFTISRDNAKNTVYLQMNSLKPEDTAVYYCAAVRRLLQGRTMYYWGQGTQVTVSS”, the “polyreactivity (PSR sort gate)” value is reported as “high polyreactivity”.
For “QVQLVESGGGLVQAGGSLRLSCAASGSTFSYYAMGWDRQAPWKERELVAAITAGGGSTYYADSVKGRFTISRDNAKNTVYLQMNSLKPEDTAVYYCNADQIFGPALNLWKLDYWGQGTQVTVSS”, the “polyreactivity (PSR sort gate)” value was “low polyreactivity”.
With “QVQLVESGGGLVQAGGSLRLSCAASGSTFSYYAMGWYRQAPGKEREFVAAISSSGGRTYYADSVKGRFTISRDNAKNTVYLQMNSLKPEDTAVYYCNAYYLAEYDYWGQGTQVTVSS” the “polyreactivity (PSR sort gate)” value was “high polyreactivity”.
In the case of “QVQLVESGGGLVQAGGSLRLSCAASGSTFSYYAMGWYRQAPGKERELVAAIRSDGGSTYYADSVKGRFTISRDNAKNTVYLQMNSLKPEDTAVYYCNAPYRRSAKFRRYGYDYWGQGTQVTVSS”, the “polyreactivity (PSR sort gate)” value is reported as “high polyreactivity”.
In the case of “QVQLVESGGGLVQAGGSLRLSCAASGSTFSYYAMGWYRQAPWKERELVAASTAGGGSTYYADSVKGRFTISRDNAKNTVYLHMNSLKPEDTAVYYCNADQIFGPALNLWKLDYWGQGTQVTVSS”, the “polyreactivity (PSR sort gate)” value is reported as “low polyreactivity”.
For “QVQLVESGGGLVQAGGSLRLSCAASGSTFTANAMGWSRQAPGKERELVAAISRSGGSTYYADSVKWRFTISRDNAKNTVYLQMNSLKPEDTAVYYCAAESPLFSPPDGEDYWGQGTQVTVSS”, the “polyreactivity (PSR sort gate)” value was “low polyreactivity”.
For “QVQLVESGGGLVQAGGSLRLSCAASGSTFTDYAMGWYRQAPGKERELVAAIRFSGGSTYYADSVKGRFTISRDNAKTTVYLQMNSLKPEDTAVYYCAAAGYPWLDSWGQGTQVTVSS”, the “polyreactivity (PSR sort gate)” value was “low polyreactivity”.
For “QVQLVESGGGLVQAGGSLRLSCAASGSTFTENAMGWYRQAPGKERELVATISTSDGSTHYADSVKGRFTISRDNAKNTVYLQMNSLKPEDTAVYYCAARPDYFLWHGYYTRRHYYWGQGTQVTVSS”, the “polyreactivity (PSR sort gate)” value was “low polyreactivity”.
With “QVQLVESGGGLVQAGGSLRLSCAASGSTFTEYAMGWYRQAPGKERELVAAITRSGGGTYYADSVKGRFTISRDNAKNTVYLQINSLKPEDTAVYYCAKDWYRRYIRDYWGQGTQVTVSS” the “polyreactivity (PSR sort gate)” value was “high polyreactivity”.
For “QVQLVESGGGLVQAGGSLRLSCAASGSTFTFYAMGWYRQAPGKERELVATISSSGGSTYYADSVKGRFTFSRDNAKKTVYLQMNSLKPEDTAVYYCAADPSIVDGEYGYWGQGTQVTVSS”, the “polyreactivity (PSR sort gate)” value was “low polyreactivity”.
For “QVQLVESGGGLVQAGGSLRLSCAASGSTFTGNAMGWYRQAPGKEREFVAAITYSGTRTNYADSVKGRFTISRDNAKNTVYLQMNSLKPEDTAVYYCAARFPWRRRYYYWGQGTQVTVSS”, the “polyreactivity (PSR sort gate)” value was “high polyreactivity”.
With “QVQLVESGGGLVQAGGSLRLSCAASGSTFTGNSMGWYRQAPGKERELVAAISRSGGSTFYADSVKGRFTISRDNAKNTVSLQMNSLKPEDTAVYYCATRYVVDMDYWGQGTQVTVSS” the “polyreactivity (PSR sort gate)” value was “high polyreactivity”.
In the case of “QVQLVESGGGLVQAGGSLRLSCAASGSTFTGYAMGWYRQAPGKERELVAAITRGGSTYYADSVKGRFTISRDNAKNTVFLQMNSLKPEDTAVYYCAAKPTSREPTGPRYYYWGQGTQVTVSS”, the “polyreactivity (PSR sort gate)” value is reported as “high polyreactivity”.
In the case of “QVQLVESGGGLVQAGGSLRLSCAASGSTFTHNGMGWYRQAPGKETELVASITWSGGSTYYAVSVKGRFTISRDNAKNTVYLQMNSLKPEDNAVYYCASDAKLYITGFDYWGQGTQVTVSS”, the “polyreactivity (PSR sort gate)” value is reported as “low polyreactivity”.
In the case of “QVQLVESGGGLVQAGGSLRLSCAASGSTFTHYALGWYRQAPGKEMELVAAITRRGGSTYYADSVKGRFTISRDYAKNTVYLQMNRLKPEDTAVYYCAARSRYDQEYDYWGQATQVTVSS”, the “polyreactivity (PSR sort gate)” value is reported as “high polyreactivity”.
With “QVQLVESGGGLVQAGGSLRLSCAASGSTFTHYAMGWYRQAPGKERELVAAISSGGSTYYADSVKGRFTISRDNAKNTVYLQMNILKPEDTAVYYCASDYYWHDWWYPHDYWGQGTQVTLSS” the “polyreactivity (PSR sort gate)” value was “low polyreactivity”.
For “QVQLVESGGGLVQAGGSLRLSCAASGSTFTHYAMGWYRQAPGKERELVAAISWGGGTTRYADSVKGRFTISRDNAKNTVYLQMNSLKPEDTAVYYCAKRVRTGSVGNFNYWGQGTQVTVSS”, the “polyreactivity (PSR sort gate)” value was “high polyreactivity”.
With “QVQLVESGGGLVQAGGSLRLSCAASGSTFTINFMGWYRQAPGKERELVAAINGGGRTNYADSVKGRFTISRDNAKNTVYLQMNSLNPEDTAVYYCAAEWRRYEYSDSWEYDYWGQGTQVTVSS” the “polyreactivity (PSR sort gate)” value was “low polyreactivity”.
With “QVQLVESGGGLVQAGGSLRLSCAASGSTFTINVMGWYRQAPGKERELVAAINCGGRTNYADSVKGRFTISRDNAKNTVYLQMNSLKPEDTAVYNCAADGRSNVRQMDYWGQGTQVTVSS” the “polyreactivity (PSR sort gate)” value was “low polyreactivity”.
For “QVQLVESGGGLVQAGGSLRLSCAASGSTFTKNAMGWYRQAPGKERELVADISFSGGSTYYADSVKGRFTISRDNAKNTVYLQTNRLKPEDTAVYDCAADRHRALPRFDDWGQGTQVTVAS”, the “polyreactivity (PSR sort gate)” value was “low polyreactivity”.
For “QVQLVESGGGLVQAGGSLRLSCAASGSTFTLNTMGWYRQAPGKERELVAGIRSGGSTYYADSVKGRFTISRDNAKNTVYLQMHSLKPEDTAVYYCAADRRWFAYWFDYWGQGTQVTVSS”, the “polyreactivity (PSR sort gate)” value was “low polyreactivity”.
In the case of “QVQLVESGGGLVQAGGSLRLSCAASGSTFTLYAMGWYRQAPGKERELVAAISGIGDSTYYADSVKGRFTISRDNAKNTVYFQMNSLKPEDTAVYYCAADGEYRYVWEYESWGQGTQVTVSS”, the “polyreactivity (PSR sort gate)” value is reported as “low polyreactivity”.
In the case of “QVQLVESGGGLVQAGGSLRLSCAASGSTFTNYALGWYRQAPGKEREFVAAITFRGGRTYYADSVKGRFTISRDNAKNTVYLQMNSLKPEDTAVYYCNKRTSPKRFDYWGQGTQVTVSS”, the “polyreactivity (PSR sort gate)” value is reported as “high polyreactivity”.
For “QVQLVESGGGLVQAGGSLRLSCAASGSTFTNYAMGWYRQAPGKERELVAAITSGGSTYYADSVKGRFTISRDNAKNTVYLQMNSLKPEDTAVYYCNAVYFSEYDSWGQGTQVTVSS”, the “polyreactivity (PSR sort gate)” value was “low polyreactivity”.
In the case of “QVQLVESGGGLVQAGGSLRLSCAASGSTFTPNVMGWNRQAPGKEREYVAAINSSGGSTFYADSVKGRFTISRDTAKYTVYLQMNSLKPEDTAFYYCAASWHTPTFYDEYYYWGQGTQVTVSS”, the “polyreactivity (PSR sort gate)” value is reported as “low polyreactivity”.
